Experimental data published in patent US20080125365A1 (UNIVERSITY OF IOWA RESEARCH FOUNDATION, published 2008).

Assays:
[1] = target: recombinant soluble TLR4 extracellular domain (amino acids 24-634), FLAG-tagged (UniProt O00206); test: co-expression with TLR4ECD, harvested medium incubated with [3H]LOS:sCD14, gel filtration
[2] = target: T1, recombinant soluble TLR4 extracellular domain (amino acids 24-634), FLAG-tagged (UniProt O00206 24-634); test: saturation binding of [3H]LOS:MD-2 (25,000 cpm/pmol) to soluble TLR4ECD, complex resolved by gel filtration
T1 construct: range 24-634; Used as concentrated conditioned medium of HEK293T cells, not purified; also called TLR4ECD; FLAG-TLR4ECD; not shown: N-terminal FLAG tag from pFLAG-CMV
T1 sequence (O00206 24-634): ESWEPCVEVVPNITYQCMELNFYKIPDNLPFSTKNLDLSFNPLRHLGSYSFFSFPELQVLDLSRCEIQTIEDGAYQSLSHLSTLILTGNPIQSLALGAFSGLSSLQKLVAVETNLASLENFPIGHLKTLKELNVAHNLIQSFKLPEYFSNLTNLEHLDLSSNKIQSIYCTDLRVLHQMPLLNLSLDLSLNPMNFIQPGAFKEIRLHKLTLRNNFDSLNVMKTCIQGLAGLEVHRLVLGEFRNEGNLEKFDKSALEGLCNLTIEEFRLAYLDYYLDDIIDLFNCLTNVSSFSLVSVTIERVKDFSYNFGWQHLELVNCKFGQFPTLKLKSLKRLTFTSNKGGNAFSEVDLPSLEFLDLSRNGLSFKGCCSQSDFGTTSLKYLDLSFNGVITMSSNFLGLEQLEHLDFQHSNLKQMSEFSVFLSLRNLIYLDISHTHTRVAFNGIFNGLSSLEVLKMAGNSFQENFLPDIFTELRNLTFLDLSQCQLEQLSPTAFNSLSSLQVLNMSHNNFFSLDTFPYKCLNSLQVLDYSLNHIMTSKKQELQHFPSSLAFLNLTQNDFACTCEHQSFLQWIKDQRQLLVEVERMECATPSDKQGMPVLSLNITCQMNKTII

[3] = target: T1, recombinant soluble TLR4 extracellular …; test: [3H]LOS:MD-2 F126A incubated 30 min at 37 C with concentrated TLR4ECD medium, Mr ~190,000 complex by gel filtration, Scatchard analysis
[4] = target: T1, recombinant soluble TLR4 extracellular …; test: culture medium of HEK293T cells secreting TLR4ECD spiked with [3H]LOS:sCD14, Sephacryl S200 gel filtration
[5] = target: T2, TLR4 stably expressed on HEK293 cells (HEK/TLR4) (UniProt O00206 24-839, limits assumed); test: overnight incubation with HEK/TLR4 cells at 37 C, cell-associated radioactivity by liquid scintillation
T2 construct: whole, on cells; Cells from Eisai Research Institute (Yang et al., 2000) or Invivogen; also called HEK293/TLR4; cellular TLR4
T2 sequence (O00206 24-839 limits assumed): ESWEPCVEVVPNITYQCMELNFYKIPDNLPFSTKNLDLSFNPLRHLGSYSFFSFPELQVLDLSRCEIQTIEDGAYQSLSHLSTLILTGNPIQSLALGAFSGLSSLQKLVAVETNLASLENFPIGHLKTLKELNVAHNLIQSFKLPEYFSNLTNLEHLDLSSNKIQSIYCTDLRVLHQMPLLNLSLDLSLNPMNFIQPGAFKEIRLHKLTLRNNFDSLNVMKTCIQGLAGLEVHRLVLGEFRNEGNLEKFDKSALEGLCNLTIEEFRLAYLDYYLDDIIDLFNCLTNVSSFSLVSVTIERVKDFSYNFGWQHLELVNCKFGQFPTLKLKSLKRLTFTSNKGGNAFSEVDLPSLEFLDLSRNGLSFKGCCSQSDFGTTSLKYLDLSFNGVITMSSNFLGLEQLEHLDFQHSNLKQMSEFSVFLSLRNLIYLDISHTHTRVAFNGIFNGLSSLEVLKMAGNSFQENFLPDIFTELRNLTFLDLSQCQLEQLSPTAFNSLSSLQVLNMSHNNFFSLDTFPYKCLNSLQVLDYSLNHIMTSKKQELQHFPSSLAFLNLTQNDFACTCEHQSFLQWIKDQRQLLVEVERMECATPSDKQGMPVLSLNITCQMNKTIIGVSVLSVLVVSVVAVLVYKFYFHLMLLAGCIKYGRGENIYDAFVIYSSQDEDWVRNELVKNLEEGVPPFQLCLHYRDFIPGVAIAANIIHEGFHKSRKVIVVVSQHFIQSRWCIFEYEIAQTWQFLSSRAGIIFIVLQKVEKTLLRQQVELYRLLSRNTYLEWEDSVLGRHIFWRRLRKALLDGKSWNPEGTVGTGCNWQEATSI

recombinant soluble TLR4 extracellular domain (amino acids 24-634), FLAG-tagged (UniProt O00206), sequence (O00206 24-634): as the sequence (O00206 24-634) above

human MD-2 Y131A.K132A double mutant (from UniProt Q9Y6Y9 19-160)
reduction of the yield of ([^3H]LOS:MD-2/TLR4ECD)2 against the single mutants [1]: 50%

B1: monomeric complex of wild-type (hexa-acylated) N. meningitidis LOS with wild-type human MD-2-His6 (ligand)
chain: QKQYWVCNSSDASISYTYCDKMQYPISINVNPCIELKRSKGLLHIFYIPRRDLKQLYFNLYITVNTMNLPKRKEVICRGSDDDYSFCRALKGETVNTTISFSFKGIKFSKGKYKCVVEAISGSPEEMLFCLEFVILHQPNSNHHHHHH
notes: mature; Mr ~25,000; Radiolabel (3H or 14C) is on the LOS; also called [^3H]LOS:MD-2; [^3H]LOS:MD-2-His6
Kd [2]: < 0.3 nM

B2: monomeric complex of wild-type LOS with human MD-2 F126A (ligand)
chain: QKQYWVCNSSDASISYTYCDKMQYPISINVNPCIELKRSKGLLHIFYIPRRDLKQLYFNLYITVNTMNLPKRKEVICRGSDDDYSFCRALKGETVNTTISFSFKGIKASKGKYKCVVEAISGSPEEMLFCLEFVILHQPNSN
notes: mature; Made in HEK293T cells (MD-2-FLAG-His) for analytical work and in High Five insect cells for preparative amounts; also called LOS:MD-2^F126A; [^3H]LOS:MD-2^F126A; not shown: C-terminal tag: pEF-BOS-MD-2^F126A-FLAG-His insert moved into pBAC11; which tag
Kd [3]: ~0.2 nM

B3: monomeric complex of LOS with soluble CD14 (other)
chain: TTPEPCELDDEDFRCVCNFSEPQPDWSEAFQCVSAVEVEIHAGGLNLEPFLKRVDADADPRQYADTVKALRVRRLTVGAAQVPAQLLVGALRVLAYSRLKELTLEDLKITGTMPPLPLEATGLALSSLRLRNVSWATGRSWLAELQQWLKPGLKVLSIAQAHSPAFSCEQVRAFPALTSLDLSDNPGLGERGLMAALCPHKFPAIQNLALRNTGMETPTGVCAALAAAGVQPHSLDLSHNSLRATVNPSAPRCMWSSALNSLNLSFAGLEQVPKGLPAKLRVLDLSCNRLNRAPQPDELPEVDNLTLDGNPFLVPGTALPHEGSMNSGVVPACARSTLSVGVSGTLVL
notes: Mr ~60,000; also called LOS:sCD14; [^3H]LOS:sCD14
binding result [4]: no binding (tested: 1 nM [^3H]LOS:sCD14) | binding result [5]: no binding (tested: 0.75 ng/ml ^3H-LOS)
